# Data taken from patent publication US20040233833A1, “Methods for identifying compounds with thrapeutic potential for treatment of central Neurodegenerative diseases resulting from abnormal protein or peptide accumulation” (priority 2001, published 2004).
# Several values for one entry are separate records, joined by “and”; a condition that tells them apart may be missing. Equal values may be shown once.
# Experiments:
# [1] = target: proteasome (chymotrypsin-like activity) (Homo sapiens, UniProt P28072+P28074+Q99436); test: Activity screen of E. coli lysates expressing mutagenized REGγ for stimulation of LLVY-MCA cleavage; type: biochemical; conditions: 170 ng proteasome, 100 μM LLVY-MCA, 10-minute incubation; 1400 colonies
# Experimental: Error-prone PCR was used to introduce random mutation into the REGγ DNA. See Zhang et al., (1998)Idnetification of an Activation Region in the Proteasome Activator REGα. Proc. Natl. Acad. Sci. 95:2807-2811. The PCR products were inserted into pET26(b) through NdeI/BamHI sites. The resulting plasmid library was transformed into BL21(DE3) cells. About 60% of the isolated colonies contained a single-site mutation.
# Transformants were picked and grown at 37° C. in LB containing 25 μg/ml kanamycin. Protein expression was induced with 0.8 mM IPTG for 2 hours at 30° C. Cells were collected by centrifugation and lysed with 10 mM Tris-HCL, pH 7.5, 0.5% Triton X-100, and 0.3 mg/ml polymixin B sulfate. Aliquots were incubated with 170 ng proteasome and 100 μM LLVY (SEQ ID NO:1)-MCA. After a 10-minute incubation, reactions were terminated with 200 μl of ethanol and fluorescence was measured. See Li et al (2000), The Proteasome Activator 11S REG or PA28: Chimeras Implicate Carboxyl-Terminal Sequences in Oligomerization and Proteasome Binding But Not in the Activation of Specific Proteasome Catalytic Subunits, J. Mol. Biol. 299:641-54.
# [2] = Heptamer stability on rechromatography (Superdex 200 size exclusion column); type: physicochemical; conditions: for Percent heptamer: after second gel filtration
# Source text: To examine the effect of Lys188 substitution on REGγ heptamer stability, the wildtype and Lys 188 variant heptamers were rechromatographed on the Superdex 200 (26/60) size exclusion column used for purification. […] Replacement of Lys 188 by Pro or Phe severely affected the stability of REGγ heptamer.
# proteasome [3] = target: T1, proteasome (Homo sapiens, UniProt P28072+P28074+Q99436); test: Proteasomal hydrolysis of natural peptides P21 and BBC1 (HPLC); type: biochemical; conditions: 21-residue peptide P21; result in words
# Experimental: Proteasomal hydrolysis of a 21 -residue peptide (P21) and a 49-residue peptide (BBC1) were prepared as described by Zhang et al. (1998), Proteasome Activation by REG Molecules Lacking Homolog-specific Inserts, J. Biol. Chem. 273:9501-09. Digestion products were applied to a C18 HPLC column and separated with a gradient of 0-45% acetonitrile containing 0.1% trifluoroacetic acid. To identify the products derived from P21, fractions were collected manually, concentrated, and subjected to mass spectrometry.
# [4] = target: T2, Human red blood cell proteasomes (Homo sapiens, UniProt P28072+P28074+Q99436); test: Activation of fluorogenic peptide hydrolysis by the proteasome in the presence of REG variants; type: biochemical; conditions: for Stimulation of cleavage (x-fold) AAF-MCA: substrate AAF-MCA; for Stimulation of cleavage (x-fold) DEVD-MCA: substrate DEVD(SEQ ID NO: 8)-MCA; for Stimulation of cleavage (x-fold) FSR-MCA: substrate FSR-MCA; for Stimulation of cleavage (x-fold) IEGR-MCA: substrate IEGR(SEQ ID NO: 5)-MCA; for Stimulation of cleavage (x-fold) IETD-MCA: substrate IETD(SEQ ID NO: 6)-MCA; for Stimulation of cleavage (x-fold) LGHD-MCA: substrate LGHD(SEQ ID NO: 7)-MCA; for Stimulation of cleavage (x-fold) LY-MCA: substrate LY-MCA; for Stimulation of cleavage (x-fold) VLK-MCA: substrate VLK-MCA; for Stimulation of cleavage (x-fold) YVAD-MCA: substrate YVAD(SEQ ID NO: 9)-MCA
# T2 construct: Human red blood cell proteasomes; from tissue; host or cells: human red blood cells
# proteasomes [5] = target: T3, proteasomes (Homo sapiens, UniProt P28072+P28074+Q99436); test: Proteasomal degradation of fluorescein-labeled polyQ peptides (molecular exclusion chromatography); type: biochemical
# Experimental: The following peptides were synthesized using routine peptide synthesis:
# Each peptide was incubated for 5 hr with proteasomes alone, proteasomes+REGγ, proteasome+REGγ(K188E) or proteasomes+REGα/β. Degradation was assayed by molecular exclusion chromatography using fluorescein as a signal (see FIG. 2). The degradation products were identified by HPLC-MS (FIG. 3). […] By contrast, in the presence of REGγ(K188E) the various polyQ peptides were degraded 5 to 10-fold faster.
# [6] = target: proteasome β subunits (T, CT/PGPH) (Homo sapiens, UniProt P28072+P28074+Q99436); test: Affinity labeling of proteasome β subunits with 125I-YL3-VS in the presence of REGs; type: biochemical; conditions: mean±S.D.
# Source text: To obtain estimates of substrate access to the proteasome's central chamber in the presence of REGγ and REGγ(K188E), the active site-directed probe, ^125I-YL3-VS, which covalently modifies all three active β-subunits in an activity dependent manner, was used. […] The phosphoimages show increased labeling of CT/PGPH and T subunits in the presence of REGγ and REGγ(K188E). The data further reveal that REGγ increased the rate of T-subunit labeling 4.7±2.6 (mean±S.D.) fold and the rate of CT/PGPH labeling 4.4±1.7 (mean±S.D.) fold over that seen with proteasome alone. Stimulation by the mutant REGγ(K188E) was greater, being 10.8±4.9 (mean±S.D.) fold for the T-subunit and 11.9±4.8 (mean±S.D.) fold for the CT/PGPH subunit. […] The finding that REGγ increased labeling of the CT and PGPH subunits was unexpected as the wild type activator suppresses hydrolysis of the CT substrate sLLVY (SEQ ID NO:1)-MCA.
# proteasome [7] = target: T1, proteasome; test: REGα(N146Y)/REGβ(N135Y) competition assay for relative proteasome affinity; type: binding; conditions: in terms of REGα(N146Y)/REGβ(N135Y) competition; wild-type REGγ 100
# Source text: As a measure of the relative affinities of REGγ and the REGγLys188 mutants for the proteasome, a competition assay was used. See Li et al. (2000), The Proteasome Activator 11S REG or PA28: Chimeras Implicate Carboxyl-Terminal Sequences in Oligomerization and Proteasome Binding But Not in the Activation of Specific Proteasome Catalytic Subunits. J. Mol. Biol. 299:641-54. All REGγLys188 mutants were relatively resistant to REGα(N146Y)/REGβ(N135Y) competition with apparent proteasome affinities varying from 40% to 90% that of wild-type REGγ.
# [8] = target: T2, Human red blood cell proteasomes; test: Activation of fluorogenic peptide hydrolysis by the proteasome in the presence of REG variants; type: biochemical; conditions: for Stimulation of cleavage (x-fold) LLE: substrate LLE-βNA (PGPH site); for Stimulation of cleavage (x-fold) LLVY: substrate LLVY-MCA (chymotrypsin-like site); for Stimulation of cleavage (x-fold) LRR: substrate LRR-MCA (trypsin-like site)
# Experimental: Human red blood cell proteasomes (170 ng) were mixed with increasing amounts of purified REG variants. The reactions were started by adding 50 μl of 200 μMscu-LLVY-MCA, Boc-LRR-MCA, or Boc-LLE-βNA in 10 mM Tris, pH 7.5. After a 10 min incubation, the reaction was quenched with 200μl of cold 100% ethanol, and the released MCA or βNA ws measured fluometrically. Each data point represents the mean of three measurements from a single experiment. […] REGα (▪), REGγ(□), REGγ(K188E) or REGγ(K188D) (●), REGγ(K188H) (∘), REGγ(K188Q) or REGγ(K188N) (Δ), REGγ(K188A) (♦). The data for REGγ(K188E) and REGγ(K188D) and for REGγ(K188Q) and REGγ(K188N) were combined since their activities were indistinguishable.
# Because each positive variant identified in the previous example included a mutation at Lys188, site-directed mutagenesis was used to generate a series of amino acid substitutions at this residue. Twelve mutants were constructed in which Lys188 of REGγ was changed to Ala, Arg, Asn, Asp, Cys, Gln, Glu, His, Ile, Phe, Pro, or Ser. Wild-type REGγ and the Lys 188 variants were expressed in E. coli, purified, and the activation specificity of each protein was measured using the diagnostic peptides LLVY (SEQ ID NO:1)-MCA, LRR-MCA, and LLE-βNA. Except for the K188R variant, all Lys 188 mutants stimulated the hydrolysis of LRR-MCA by the proteasome to the same extent or slightly better than wild-type REGγ. Substitution of negatively-charged Glu or Asp for the positively-charged Lys188 produced mutants with activation properties almost identical to REGα.
# To determine the degree to which the activation specificity of REGγ(K188E/D) variants matches that of REGα, proteasomal cleavage of a series of fluorogenic peptides was measured in the presence of each activator.
# proteasomes [9] = target: T3, proteasomes; test: Proteasomal degradation of the fluorescein-tagged C31 peptide of APP; type: biochemical; conditions: result in words
# Experimental: A 31-residue C-terminal peptide (C31) of APP, the transmembrane protein that gives rise to amyloid plaque forming Aβ peptides characteristic of Alzheimer's disease, was synthesized using routine peptide synthesis. A fluorescein tag was added to the peptide. C31 peptide is cytotoxic. See Lu et al. (2000), a Second Cytotoxic Proteolytic Peptide Derived from Amyloid Beta-Protein Precursor, Nat. Med. 6:397-404.
# The C31 was incubated with proteasomes alone, proteasomes+REGγ, proteasome+REGγ(K188E) or proteasomes+REGα/β, and degradation was assayed as described in Example 8.
# [10] = proteasome + activator, 5 hr incubation
Substance,Hydrolysis of P21 by the proteasome (proteasome [3]),Stimulation of cleavage (x-fold) AAF-MCA [4] [x-fold],Stimulation of cleavage (x-fold) DEVD-MCA [4] [x-fold],Stimulation of cleavage (x-fold) FSR-MCA [4] [x-fold],Stimulation of cleavage (x-fold) IEGR-MCA [4] [x-fold],Stimulation of cleavage (x-fold) IETD-MCA [4] [x-fold],Stimulation of cleavage (x-fold) LGHD-MCA [4] [x-fold],Stimulation of cleavage (x-fold) LY-MCA [4] [x-fold],Stimulation of cleavage (x-fold) VLK-MCA [4] [x-fold],Stimulation of cleavage (x-fold) YVAD-MCA [4] [x-fold],Relative affinity for proteasome (proteasome [7]),Stimulation of cleavage (x-fold) LLE [8] [x-fold],Stimulation of cleavage (x-fold) LLVY [8] [x-fold],Stimulation of cleavage (x-fold) LRR [8],Colony screen for stimulation of LLVY-MCA cleavage [1],Percent heptamer [2],further results
"(L38V, K188N): REGγ double mutant L38V, K188N isolated from the error-prone PCR library",,,,,,,,,,,,,,,positive,,
"(F102I, K188N): REGγ double mutant F102I, K188N isolated from the error-prone PCR library",,,,,,,,,,,,,,,positive,,
"(L71P, K188E): REGγ double mutant L71P, K188E isolated from the error-prone PCR library",,,,,,,,,,,,,,,positive,,
γK188D: mutant REGγ in which Lys188 was changed to Asp,markedly increased,4,9,7,2,26,11,3,6,8,90,9,14,15 x-fold,,50%,"Heptamers dissociated during the second gel filtration ([2]; Superdex 200): More than half; Activation properties compared with REGα ([8]; small fluorogenic peptides, result in words): virtually identical to REGα"

# Further lines, with some results ahead:
Hydrolysis of P21 by the proteasome (proteasome [3]),Stimulation of cleavage (x-fold) AAF-MCA [4] [x-fold],Stimulation of cleavage (x-fold) DEVD-MCA [4] [x-fold],Stimulation of cleavage (x-fold) FSR-MCA [4] [x-fold],Stimulation of cleavage (x-fold) IEGR-MCA [4] [x-fold],Stimulation of cleavage (x-fold) IETD-MCA [4] [x-fold],Stimulation of cleavage (x-fold) LGHD-MCA [4] [x-fold],Stimulation of cleavage (x-fold) LY-MCA [4] [x-fold],Stimulation of cleavage (x-fold) VLK-MCA [4] [x-fold],Stimulation of cleavage (x-fold) YVAD-MCA [4] [x-fold],Relative affinity for proteasome (proteasome [7]),Stimulation of cleavage (x-fold) LLE [8] [x-fold],Stimulation of cleavage (x-fold) LLVY [8] [x-fold],Stimulation of cleavage (x-fold) LRR [8],Substance,Colony screen for stimulation of LLVY-MCA cleavage [1],Percent heptamer [2],further results
decreased,1,2,7,1,1,1,2,5,0.9,100,0.6,0.4,12 x-fold and 11 x-fold,"REGγ: wild-type 11S REG proteasome activator subunit, a homo-heptamer found principally in the nucleus",,>95%,"Percentage that remained heptamers on rechromatography ([2]; Superdex 200 second gel filtration): remained fully heptameric; Stimulation of cleavage of the LRR-MCA substrate ([4]; compared to the basal rate in the absence of REGγ (Example 10)): 10-20 fold; Proteasomal cleavage of sucLLVY-MCA ([4]; result in words): does not promote; % Degraded, substrate F1-EPQPQ (proteasomes [5]; [10]): 5%; % Degraded, substrate F1-KSQPQ (proteasomes [5]; [10]): 15%; % Degraded, substrate F1-QHQ (proteasomes [5]; [10]): 5%; % Degraded, substrate F1-QPQ (proteasomes [5]; [10]): 5%; % Degraded, substrate F1-QQQ (proteasomes [5]; [10]): 15%; Degradation of polyQ peptides (proteasomes [5]; result in words): resistant to degradation; Increase in rate of CT/PGPH labeling over proteasome alone [6]: 4.4±1.7 fold; Increase in rate of T-subunit labeling over proteasome alone [6]: 4.7±2.6 fold; Degradation of C31 peptide by proteasomes (proteasomes [9]): Only trace amounts"
,,,,,,,,,,75,5,5,14 x-fold,γK188N: mutant REGγ in which Lys188 was changed to Asn,positive,80%,
markedly increased,6,10,10,3,30,11,5,7,9,0,9,16,16 x-fold,REGα: 11S REG proteasome activator subunit closely related to REGβ and REGγ,,˜95%,
